The experiment addresses plasma proteins (rat (endogenous in serum)). Put plainly: SEC.

These results are taken from article PMC3107238.

Where only a bound is given, the exact number is not on record here.

With “soluble vWA domain of tumor endothelium marker-8 (sTEM8) (from UniProt Q9H6X2 38-220) (domain or fragment)”, the percent plasma protein binding was above 90%.

Take “L56A mutant of sTEM8 (from UniProt Q9H6X2 38-220) (domain or fragment)”: the percent plasma protein binding was above 90%.
